Laboratory results taken from patent US20200347144A1 (SHANGHAI HYAMAB BIOTECH, published 2020).

What was measured:
[1] = biological target: T1, human 4-1BB, full length, on transfected cells (human, UniProt Q07011 24-255); assay: FACS, CHOK1-h4-1BB cells; Ab 0.00013 ug/ml
T1 construct: whole, on cells; also called CHOK1-h4-1BB
Excerpt: (§1) The pIRES plasmid carrying the full-length gene of monkey-derived […] (the preparation method is the same as the preparation method of the pCpC vector carrying the human-derived IgG Fc fragment (hFc) in “Preparation of immunogen A” of the step (1) in Example 1, in which the database accession number of the amino acid sequence of the extracellular region of monkey 4-1BB protein (Phe19-Thr239) is G7PSE7) was transfected into CHOK1 cell line to obtain CHOK1 stable transfected cell line containing monkey 4-1BB (herein referred to as CHOK1-c4-1BB stable cell line). The CHOK1-h4-1BB stable cell line and the CHOK1-c4-1BB stable cell line were expanded and cultivated to 90% confluence in T-75 cell culture flasks. The medium was exhausted, and washed twice with HBSS buffer (Hanks Balanced Salt Solution, purchased from Invitrogen), and then the cells were treated and collected with enzyme-free cell dissociation solution (Versene solution, purchased from Life Technology). The cells were washed twice with HBSS buffer, and after cell counting, the cells were diluted with HBSS buffer to 2×10⁶ cells per ml, and 1% goat serum blocking solution was added, the percentage being the mass percentage. It was incubated on ice for 30 minutes, and then washed twice with HBSS buffer by centrifugation. The collected cells were suspended in FACS buffer (HBSS containing 1% BSA, the percentage was the mass percentage) to 2×10⁶ cells/mL, and 100 μl per well was added to a 96-well FACS reaction plate. The purified 4-1BB antibody test sample obtained in Example 2 was added, 100 microliters per well and incubated on ice for 2 hours. […] It was washed three times with FACS buffer by centrifugation, and 100 μl of fixative [4% (v/v) paraformaldehyde] per well was added to suspend cells, and washed twice with FACS buffer after 10 minutes by centrifugation. The cells were suspended with 100 microliters of FACS buffer, and the results were detected and analyzed with FACS (FACS Calibur, purchased from BD).

[2] = biological target: T1, human 4-1BB, full length, on …; assay: FACS, CHOK1-h4-1BB cells; Ab 2 ug/ml
Excerpt: as §1

[3] = biological target: T2, monkey 4-1BB-his protein (monkey); assay: ELISA, coated monkey 4-1BB-his; Ab 0.4 ug/ml
T2 construct: extracellular domain; Bought protein; also called extracellular domain of monkey-derived 4-1BB protein
Procedure: (§2) The purified immunogen A (4-1BB-hFc), monkey 4-1BB-his, and mouse 4-1BB-his obtained in Example 1 [for the preparation method, see step 1 of Example 1, preparation of immunogen A], of which the extracellular domain of monkey-derived 4-1BB protein (purchased from ACRO biosystems), the extracellular domain of mouse 4-1BB protein (purchased from sino biological) or other immune detection point proteins respectively were diluted with PBS to a final concentration of 1.0 μg/mL, then added with […] per well to 96-well ELISA plate. It was sealed with plastic film and incubated at 4° C. overnight. The next day, the plate was washed twice with the plate-washing solution [PBS containing 0.01% (v/v) Tween20] and blocking solution [PBS containing 0.01% (v/v) Tween 20 and 1% (v/v) BSA] was added and blocked at room temperature for 2 hours. The blocking solution was discarded and 100 μl of the purified 4-1BB antibody obtained in Example 2 was added per well. After incubated at 37° C. for 2 hours, the plate was washed 3 times with a plate-washing solution [PBS containing 0.01% (v/v) Tween20]. A secondary antibody (purchased from Sigma) labeled with HRP (horseradish peroxidase) was added, and after incubated at 37° C. for 2 hours, the plate was washed 3 times with a plate-washing solution [PBS containing 0.01% (v/v) Tween20]. 100 μl of TMB substrate was added per well. After incubated for 30 minutes at room temperature, 100 μl of stop buffer (1.0N HCl) was added per well. The A450 nm values were read using an ELISA plate reader (SpectraMax 384plus, Molecular Device).

[4] = biological target: T1, human 4-1BB, full length, on …; assay: FACS, CHOK1-h4-1BB cells; Ab 0.08 ug/ml
Excerpt: as §1

[5] = biological target: T1, human 4-1BB, full length, on …; assay: FACS, CHOK1-h4-1BB cells; Ab 0.4 ug/ml
Excerpt: as §1

[6] = biological target: T3, hFc-tagged human 4-1BB extracellular domain protein (4-1BB-hFc) (human, UniProt Q07011 24-186, limits assumed); assay: ELISA: human 4-1BB-hFc coated at 1.0 µg/mL, antibody titrated, HRP secondary antibody, OD450
T3 construct: also called immunogen A; 4-1BB^ECD-hFc; not shown: human IgG Fc fragment (hFc) of the pCpC vector
Procedure: as §2

[7] = biological target: T2, monkey 4-1BB-his protein; assay: ELISA, coated monkey 4-1BB-his; Ab 0.0006 ug/ml
Procedure: as §2

[8] = biological target: T1, human 4-1BB, full length, on …; assay: FACS, CHOK1-h4-1BB cells; Ab 10 ug/ml
Excerpt: as §1

[9] = biological target: T4, monkey 4-1BB on CHOK1 cells (monkey); assay: FACS, CHOK1-c4-1BB cells; Ab 0.4 ug/ml
T4 construct: whole, on cells; also called CHOK1-c4-1BB
Excerpt: as §1

[10] = biological target: T4, monkey 4-1BB on CHOK1 cells; assay: FACS, CHOK1-c4-1BB cells; Ab 0.08 ug/ml
Excerpt: as §1

[11] = biological target: T3, hFc-tagged human 4-1BB extracellular …; assay: ELISA, coated human 4-1BB-hFc; Ab 0.08 ug/ml
Procedure: as §2

[12] = biological target: T3, hFc-tagged human 4-1BB extracellular …; assay: ELISA, coated human 4-1BB-hFc; Ab 0.0032 ug/ml
Procedure: as §2

[13] = biological target: T3, hFc-tagged human 4-1BB extracellular …; assay: ELISA, coated human 4-1BB-hFc; Ab 0.016 ug/ml
Procedure: as §2

[14] = biological target: T3, hFc-tagged human 4-1BB extracellular …; assay: ELISA, coated human 4-1BB-hFc; Ab 10 ug/ml
Procedure: as §2

T1 sequence (Q07011 24-255): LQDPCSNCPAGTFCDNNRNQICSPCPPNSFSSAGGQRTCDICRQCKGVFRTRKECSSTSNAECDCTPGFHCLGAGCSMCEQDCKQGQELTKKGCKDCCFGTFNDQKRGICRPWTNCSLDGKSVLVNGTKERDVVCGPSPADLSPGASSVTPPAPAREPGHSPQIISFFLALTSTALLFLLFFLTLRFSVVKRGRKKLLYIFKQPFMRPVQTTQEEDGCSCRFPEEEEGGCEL

Binder | average fluorescence intensity [1] | average fluorescence intensity [2] | OD450 nm [3] | average fluorescence intensity [4] | average fluorescence intensity [5] | EC50 (read off the curve) [6] | OD450 nm [7] | average fluorescence intensity [8] | average fluorescence intensity [9] | average fluorescence intensity [10] | OD450 nm [11] | OD450 nm [12] | OD450 nm [13] | OD450 nm [14]
57B3D10 (antibody, V domains shown, also called 4-1BB fully human antibody 57B3D10) VH: QVQLQESGPGLVKPSETLSLTCTVSGGSISSYYWSWIRQPPGKGLEWIGYIYYSGSTNYNPSLKSRVTISVDTSKSQFSLKLTSVTAADTAVYYCAKDSDYYGSGSYSYWYFDLWGRGTLVTVSS VL: EIVMTQSPATLSVSPGERATLSCRASQSVSSNLAWYQQKPGQAPRLLIYGASTRAPGIPARFSGSGSGTEFTLTISSLQSEDFAVYYCQQYNNWPLTFGGGTKVEIK | 4.9 MFI | 555 MFI | 2.44 OD450 nm | 389 MFI | 490 MFI | ~0.02 µg/mL | 0.1 OD450 nm | 538 MFI | 549 MFI | 166 MFI | – | – | – | –
113F6C6 (antibody, V domains shown, also called 4-1BB fully human antibody 113F6C6; 113F6F6) VH: QVQLVESGGGVVQPGRSLRLSCAASGLTFSSYGMHWVRQAPGKGLEWVAVIWYDGSNKYYADSVKGRFTISRDNSKNTLYLQMNSLRAEDTAVYYCAREEVLWFGELSYNYYYGMDVWGQGTTVTVSS VL: DIQMTQSPSSLSASVGDRVTITCRASQGISNYLAWYQQKPGKVPKLLIYAASTLQSGVPSRFSGSGSGTDFTLTISSLQPEDVATYYCQKYNSVPLTFGGGTKVEIK | 2.7 MFI | 477 MFI | 2.14 OD450 nm | 154 MFI | 323 MFI | ~0.02 µg/mL | 0.08 OD450 nm | 405 MFI | 357 MFI | 182 MFI | – | – | – | –
119B6G5 (antibody, V domains shown) VH: EVQLLESGGGLVQPGGSLRLSCAASGFTFSNYAMSWVRQGPGKGLEWVSTIIGSGDSTYYTDSVKGRFTISRDNSKNTLFLQMNSLRAEDTAVYYCARDKSGWYYFDYWGQGTLVTVSS VL: DIQMTQSPSTLSASVGDRVTITCRASQSISNWLAWYQQKPGKAPKLLIYKASSLESGVPSRFSGSGSGTEFTLTISSLQPDDFATYYCQQYNDYFPITFGQGTRLEIK | 2.6 MFI | 1080 MFI | 2.54 OD450 nm | 199 MFI | 636 MFI | ~0.02 µg/mL | 0.11 OD450 nm | 1080 MFI | 944 MFI | 303 MFI | 2.62 OD450 nm | 0.33 OD450 nm | 1.25 OD450 nm | 2.78 OD450 nm
258F5A8 (antibody, V domains shown) VH: QVQLVESGGGVVQPGRSLRLSCAASGFTFSSYGMHWVRQAPGKGLEWVAVIWYDGSNKYYADSVKGRFNISRDNSKNTLYLQMNSLRAEDTAVYYCARGPYLYSSGWYDYYYYGMDVWGQGTTVTVSS VL: not shown | 4.1 MFI | 766 MFI | 1.32 OD450 nm | 252 MFI | 591 MFI | ~0.02 µg/mL | 0.07 OD450 nm | 835 MFI | 71.4 MFI | 26.6 MFI | 2.47 OD450 nm | 0.26 OD450 nm | 1.06 OD450 nm | 2.68 OD450 nm
259G10E11 (antibody, V domains shown) VH: QVQLVESGGGVVQPGRSLRLSCAASGFTFSSYGMHWVRQAPGKGLEWVAVIWYDGSNKYYADSVKGRFTISRDNSKNTLYLQMNSLRAEDTAVYYCARGPYLYSSGWYDYYYYGMDVWGQGTTVTVSS VL: not shown | 3.9 MFI | 803 MFI | 1.18 OD450 nm | 252 MFI | 625 MFI | ~0.02 µg/mL | 0.07 OD450 nm | 827 MFI | 64.3 MFI | 25.4 MFI | 2.64 OD450 nm | 0.33 OD450 nm | 1.29 OD450 nm | 2.8 OD450 nm
263A11E3 (antibody, V domains shown) VH: QVQLQESGPGLVKPSETLSLTCAVSGYSISSGYYWGWIRQPPGKGLEWIGSIYHSGSTSYNPSLRSRVTISVDTSKNQFSLKLSSVTAADTAVYYCARDAGGFDYWGQGTLVTVSS VL: not shown | 4 MFI | 1690 MFI | 0.14 OD450 nm | 356 MFI | 1120 MFI | ~0.02 µg/mL | 0.07 OD450 nm | 1780 MFI | 56.5 MFI | 21.1 MFI | 2.59 OD450 nm | 0.3 OD450 nm | 1.23 OD450 nm | 2.75 OD450 nm
15G10D4 (antibody, V domains shown) VH: QVQLVESGGGVVQPGRSLRLSCAASGFSFSSYAMHWVRQAPGKGLEWVAIIWYDGSNQYYADSVKGRFTISRDNSKNTLYLQMNSLRAEDTAVYYCARVKQWLVSYFDYWGQGTLVTVSS VL: EIVMTQSPATLSVSPGERATLSCRASQSVSSNLAWYQQKPGQVPRLLIYGASTRATGIPARFSGSGSGTEFSLIISSLQSEDFAVYYCQQYNNWPTFGGGTKVEIK | 4.2 MFI | 521 MFI | – | 322 MFI | 492 MFI | ~0.02 µg/mL | – | 532 MFI | 359 MFI | 156 MFI | 3.35 OD450 nm | 0.52 OD450 nm | 1.72 OD450 nm | 3.53 OD450 nm
